For 47 sequences, protease stability score results are on record in the NTF2 design screens of Basanta et al. (2020).

This series is described as follows: protease stability score; higher = more stable; yeast display proteolysis, trypsin and chymotrypsin.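 Also: log10 excess protease needed over predicted unfolded state with 0 meaning unfolded.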
The sequence “DERARERVEELLQVENDGDPDKVMEYFDPNAKAEIGDKHIHGRETFRHRLERTNKEMRYHLEVEHIRVNGNNVEMTFRAETEHNGQPSHDRNHAVLHITNGRIKYKRVKRDG” came in with a protease stability score of 0.178.

“DERARNVLKRIMHALRENNEEEFKKNADPNVRIHVGDKQYHGREDAARKIMTTLKSMKERIDVKSVDVEGDQIELHADVQVEENGQPDTKEIRVHADIQGDKMRSMKVDDTK”: the protease stability score is -0.308.

Take “DERASELAEKIIKALHTGNPQEVQKLVPPDVHVVYGDKNIHGRENAKKYWDQVLRNWRLNIQDFRIDADGDNVTVELHAEFNVNGQPIQARATVTVNVKNGRVKELNVQLPHEDLRRIRQ”: the protease stability score stood at 0.619.

“DERAVEVLERFLEAQKTGNEEDLKKQVDPNARIQIGDKQVHGMDQAARNLVDTYEEIQIDFRIDRMSAHNGNVTVEAHQQINVNGRPFRNSVTMHAYLQGDKAKEINYRVPEKFENEVKS”: the protease stability score is -0.326.

In the case of “DERAVKRMEKFIKVLINGNPDDLKEYLDENVKVDVGDKRIHGRETFMNEAEKDKRQMSVSLKEVRVDAHNGRLQVNARVHINHNGTPRDKEYVMQAILHNGRIKSMRVQSTG”, the protease stability score was determined as 0.835.

The sequence “DERDADEIAKVFVHNNPKDIERMVDEDVRIIIGDFEVQGREEARKYAEQLEKHIDHNHVRDYRVEGNKVTLDVNVVVNGRSLTFVVHITMHNGHVKEIRVQFTSPEDQKVFKEVVG” displayed a protease stability score of 0.719.

In turn, “DERDADKVRQLYENEQHGDEHKVMQLVDKDVRFQYGDHEVQGREQQKKLVKERQDKARFELKSVDARDHNGRVRVDVRWVAEVNGRPHEDTIEVVVEIHNGKVKHVEFRVDPDHWTEVMQ” registered a protease stability score of 0.152.

For “DERDAETWTRMLEAVEYNNPEEVRKNADPNANFVYGNKTITGREQYAEEMKKEMDDMRKHVKIDDYHVEGDNIHVSAKFEWEVNGTPVRDTVSVQFVAENGKVRSVQYRFDPDSERKEDQ”, the protease stability score is -0.641.

As to “DERDAKKRIKDMIEALHTGDPDEFKRNLPPNARLEYGDKRVHGREQLAREVEKERKRFDHVEVKHIKVDNGRVHVELDLNVNGRTETRELVFNVSNGRVEEVHIRVP”, the protease stability score is -0.186.

The sequence “DERDANEMMRVIREGDFNKFRQMADENVSAVYGDKTVRGRETIKRIIHRIKRHVDHLKVDSLSTTGDHVTVDAVMHVNGQRVHFVMVVRVQNGHIKEVQFEVRNEEAQKRLEQVLS” returned a protease stability score of 1.18.

Sequence “DERDATNAIESVMKAIKEGDPDQMQKNADPNARLQIGDKVYHGRETIVTLLKELAHRVDHLQIDSMHQHNGRVTVSILVQVNGQRRTVNIEAQARDGRLKNMHIDPEFWRQLER” yielded a protease stability score of 0.781.

Sequence “DERDDRQLNHLFRDLVHGDPDEADKLVDPNVQFTYGDRTYSGNDELQRLIDNWKKELHVTVKDIRVENQGDKVVIHIEMEYTHNGQPTSYKMSVRATAHNGKVKHMNMTSQS” came in with a protease stability score of 0.103.

“DERDEKRLNETAHRLVKTGDPDQWARLADKDVHVRVGDKKWEGREQLRDLLSRIVKNVDTHQVDTVTAKNGRITIRMVLNINGRNLTIWVTMVIHNGKIKEVEVRVRSEKERKKLES” came in with a protease stability score of 0.981.

Regarding “DERDHVRRLLNTWLKVVKRNDEDQARRLADPNARVEVGDKTYSGDEKVVELMHKIRQQYDSIDIHLHTVKREGDFIHAKAKMDAKVNGKQEDVTMFIWFKQHNGEWHILQVIIK”, the protease stability score worked out at 0.723.

As to “DERDLEEVNRLVKHGNWHEFVKNADKNVRARVGDKRVHGREHFKSLAENWRRRIDHQSIKFVDVQGERAVVTMKMNVNGKTVEVMFSFVVSNGHIKEYEMRARNDDDETRLQEVRS”, the protease stability score came to 0.478.

“DERDLHRQAEDVATAWQTGDSHQFEKLASENVRYVIGDKSYKGKEQVKDMLTEIDKQADHRRVSSMTVHGNKIVVVITVHYNGRTRRLNVVFDVHNGRVRQVDLSIG” displayed a protease stability score of 0.701.

“DERDLKEAIDNIRTNNFDELNKMADPNVKAVIGNKTIHGRETINKFLHRLSQQVDHVRIRHYHTRGDHLHVDFKVHFDGKDVKLRIVIRVNNGKITYIQIDVTSEEQLEELDEIVD”: the protease stability score was found to be 1.59.

“DERDLKEALDLVKTGDFTRIARMADENVKLKVGDKDVHGREDAKRLMSQLEKQVDHYEIDDVTLEGNSASIDAHFNVNGNRIRFVVVIHVHNGKIKHFTIHVRDEEDKDKLRKDDG” displayed a protease stability score of 0.799.

With “DERDLKTFLDILERNDEDKLQTMADENVELQVGDKTFHGREEFQKYVQHVRDQVDRVDVRDYRIDNGRASVRVIFDFNGKNLDVVMVFSVRNGRVKYFSIQYRDEEVKKMLEEIEG”, the protease stability score was -0.172.

Consider “DERDMKAIVRAVKAFRRNNPEEVRENVDENVRIHVGDKEVHGRDQLKRDMEREVKTWRRSIRRISIDNQGDTVNVDIDQEKKHDGDPNREQNVVHFVAQNGKIKSVEQRHDG”, for which the protease stability score was found to be 0.748.

Consider “DERDMTKVFDALLKNDEDTVKDQLDEDVQVTVGDKKVHGREQAQETWERLLQRADHINMKSFTTRGDRAVAIVVARVNGHKLEWEYRFKASNGKVEHARIDFRDDDEERKFENALR”, for which the protease stability score was found to be 0.024.

In turn, “DERDNKVVEEYIKALQRGDPKQARRQADPNARFQVGDTELHGMDDVARKIERETKQWRLEIHHVKVDVKGDKMTIRLDFVVEVNGHPKRMNLTVEAHAHNGKIKEMVMHVDPKQEEELKS” yielded a protease stability score of 0.188.

Take “DERDQELFQNFIKALQTNNPDQVMEQVDPNAEIQYGDRVVRGRHQLRREVEQEHHEMRNDIKVRSIRANNGHVEATFDVVFEINGKPVENRVSVILEMRDGRAKHIEWRIPSEVKEQLKG”: the protease stability score turned out to be 0.059.

“DERDQKHLAELIAKALETGDFKLAQKNVDENVRVKVGDETLHGKDNMQKWAEENHRRVDHLQLNDIKIHNGRVVINMRAVVNGKDFRLDIKIQFDNGKIHVVSIDPRVERHIKS” came in with a protease stability score of 0.733.

In turn, “DERDQNRKAEEAAHALRDGDERRISEMFDKNAHATVGDQTYTGREEIMKWVHDIKKRYDHVTLHDVKVHNGRADLDMVFNHNGKEDRIRIDIQFQGDKIKHVSVRSK” came in with a protease stability score of 1.69.

“DERDQRRRMDQARKILKNNDEEKFNRLLDENARMRVGEKVFHGRRQARTHLKRLHEHVDSIRVNHVSVHNGNVEVVVTMQHNGRYRQIRFDMQVHNGRAKEVKIDTS” came in with a protease stability score of 0.091.

Consider “DERDQVKRAKEYLHAFNQGDPDEADKNADPNAKVDVGDHRYHGREEFDKAVKTFKDQVDHIEVKDVKAQGNHASARVTADVNGHTLDMIITVELHNGKVKSYVVKKK”, for which the protease stability score is -0.175.

On to “DERDRHKQVEEMINAFDDGDEETIKELMDEDVRAQIGNKRVHGQENVSRILKEFRDRADHIQVDTYHVEGDRAQIHAKVEVNGRRIKVSIHVQLENGRFKSFVIEYTDSDKLREMQS”, for which the protease stability score worked out at 0.909.

On to “DERDRRVMEDFFRALEEGDPDTLRQNMDKDAKLVIGDKTYHGREEIATRIVQHIEHAHVRMRVDSIRAHNGRVEVNVTFMVNHNGRPRSDRMNVEAVIRNGKIKELHLVTEK”, for which the protease stability score is -0.131.

The sequence “DERDVHRIAEQLIKAMQTGDEKKLTDLADKDAEAQIGDKEIHGNHDFSRAMREFRERVDHIELKDIRVHNGHVSVDIVADINGVQLRFVITMEVKNGKVRQLSVEVRDPEQEKTALS” showed a protease stability score of 0.9.

On to “DERDVKRVEEWVKAEHTGDKDKMKELLDENAEIQIGDRSITGRETRAEELRKRQEQMRVRFRKVDFQHRNGQARVDMDVQNDHNGKPHTHRVDANFQLHNGKVQRVKMTSHK”, for which the protease stability score was 0.099.

Sequence “DERDVKSVIDLVKTGDFDQMVRNADKDVKIRIGDKHVHGREQASEAMKKFTDQIDHYEVKSVNVNNGRVIVEAVFVVNGEKITVTVIVEAQNGRITHVEWRYRDEHDKKLLRKILG” gave a protease stability score of 1.47.

Take “DEREAASVAMRAAQAFVTGDEKTFVDNVDPNARVTVGDKHLHGREHIQDHIRKLKTRVDHHEIHDYKVHGNKATMDVRVVFDGRTRDKKIFAVAHNGRVQEMRVEDG”: the protease stability score is -0.299.

As to “DEREAENARNYQENQKTNNPQKLQELVDPNVHWQVGDKSYKGRETQKKEMDNKRNHIREHIEHVEVRSHGDKVEAKYTAYADINGDPVRMRFDQVMVVHNGRLTEVNVDMSEDQKRKQES”, the protease stability score is -0.46.

Sequence “DEREAKKVVEDLKRGDWNKLMQLVDPNAKAVVGDKRVHGREQVQHMMQQFQDRIDHMEIRSVRVHNGRIEVDATFIFNGQSVRVIFHITVHNGRIQEIHVQATNEKVKHQLRKFLS” gave a protease stability score of 1.07.

“DEREARDVQHRINKNDPQSHEDQVDEDVKLQIGDTTWHGREELNDVIRRVRESADHIKYERVEVDGDTVVADVVYTINGKNIKLRLVVHVKNGRIKYMNMTATNPDDLRTLNEIIQ” came in with a protease stability score of 1.25.

As to “DEREEAKRLWERFVRAIQHGDERRLRELLPPDVRVTVGDKEYHGRDQAVTWLQELAERVDHVSFDVRHIEVENGRLDIDAKVQMENNGRQHSFTLRIIADDHNGKFVIRSITYQ”, the protease stability score amounted to 1.84.

Regarding “DEREEEKMAEDLLNAVERNNPDHAQKMVDENARVVIGDKDVHGRERMREAIKRQKEQFDRFRWTDVKVDNGRVRAQAVYERNGRTHHVDLNAVIHNGRAKSVRIEEK”, the protease stability score came to 0.022.

Sequence “DEREHAEDYARQLDKAFRTGNPDEVMKQVDKDAHFQVGERRFHGEDEFKKWAEEVFERADHIHFRVREVTRQGDKIDVDMQVDMTTNGKRETDKVRALIDTQNGRQRVDEMTFK” had a protease stability score of 0.651.

“DEREKEHVEEFLRNWEEGNQDNLMRLADPNVRLQIGDHEIHGREQLAKHVDDERKQMRVSMQIKSVDAHNGRIHIQAERESQHDGNPTKESLVITFVLRNGRIQEVSYKRQQ” registered a protease stability score of 0.959.

For “DERELDNASRVATNIATGDEEKVVKLADENAKLNVGDNEVHGTEQATREVKKTQNDLRRNVESFEIDKNGNHARLEATVYQTVNGKPVRYKMSAEVHVHNGRVTKVDVQMDHRLLQRNKK”, the protease stability score is -0.037.

As to “DERELSLFHRWLEVLNDGNEENLKQNMDPNAHANIGEKEIHGMEDFARHMITKVKELRIKIDDIKSSAHNGRLTASIDQQDNDNGKPDKYTNTFRAKFSNGQIQSQKVERDG”, the protease stability score was -0.31.

As to “DEREMKQFIELMKQKQTGNEHHVREMFDPNAQIKVGDKTVHGKDNIREQAHRERKEMREDFRIESLDHDGERVVIKYEVQQNHNGRPKTYDVEAEAEVHNGHFKFVSVDNTE”, the protease stability score is -0.399.

For “DERENKKHAEQLARVFQTGDHDQLRKMMPPDAKAQVGDKEYQGRDSVLHDIKRFLRQADSITIQSVTVQGNTLNIHIQLDINGKDFQAVIEVEMHNGKVVRIVIKES”, the protease stability score is -0.044.

The sequence “DERENQENVEEMNRVLQSGDEDRMKELVDPNATAVVGEKRVHGRETIKDEIRRFKDHADHITVERVTAKGNSAIIDIVYNVNGRETTIIVIANVHNGKIRHLHFQKS” displayed a protease stability score of 0.301.

The sequence “DEREQIKKVLKRLEDIFKSGDEDKARELIDPNARMEYGDKELHGREKMARFIHELRKRIDHMEISLQDFKVKGDKLVFRAHLEAEVNGRKTSMTLRVVAHVEGDKIKIKEIQIK” came in with a protease stability score of 1.65.

“DERERERQLRDIFRVIQRGDQDRWKEQADENARIHVGDTRVHGQEEARKWFKELVDRADHFSVKRIEVNGDDMILTFEVEFNGKRHTVTIDFNVQNGRIQNINVDPEAERRIRK” had a protease stability score of 0.048.
